Assays:
[1] = target: T1, Recombinant Human VEGFR2/KDR Protein, His tag (hVEGFR2-his) (human, UniProt P35968 20-764); assay: ELISA, human VEGFR2-his coated, anti-human Fc-HRP; antibody made in CHO cells
T1 construct: Expressed in HEK293, bought from ACRO Biosystems; also called human VEGFR2-his; Human VEGFR2/KDR-His

[2] = target: T1, Recombinant Human VEGFR2/KDR Protein, …; assay: competition ELISA: VEGF-A coated (0.25 ug/ml), antibody titrated together with 1 ug/ml human VEGFR2, detection with mouse anti-VEGFR2 serum and anti-mouse Fc-HRP; blocked ligand VEGF-A
Experimental: For this assay, 0.25 μg/ml VEGF-A was coated on ELISA plate before a mixture of chimeric antibodies and VEGFR2 were added. To detect free VEGF-A (not bind to VEGFR2), 1:1000 diluted mouse serum (mouse previous immunized with human VEGFR2) were added and HRP conjugated goat anti-mouse Fc antibody was used as secondary antibody.
Same protocol of Example 10. Briefly, 0.25 μg/ml VEGF-A was coated overnight at 4° C. After blocking, serial diluted 54-H2L1, 48-H3L1, Ramucirumab and 1 μg/ml human VEGFR2 or rhesus VEGFR2 were added at the same time for 2 hour-incubation. After wash, mouse serum containing polyclone VEGFR2 antibody and HRP conjugated goat anti-mouse Fc antibody were added for detection of free VEGF-A coated on the plates (see FIGS. 13A and 13B).

[3] = target: T2, human VEGFR2 on HUVEC cells (human, UniProt P35968 20-1356); assay: flow cytometry on HUVEC cells, MFI, anti-human IgG (H+L)-PE
T2 construct: also called hVEGFR2 on HUVEC
Experimental: Same methods with Example 11. Briefly, Log phase HUVEC cells were collected and added to each tube. Then 100 μl/tube serial diluted humanized antibodies in FACS buffer were added and kept at 4° C. for 1 hr. Binding of antibodies to HUVEC was detected by PE signal of the 2nd antibody (anti-hIgG (H+L)-PE), which was added after the 1st antibodies. (see FIG. 15).

human VEGFR1 protein = target: T3, human VEGFR1 protein (human, UniProt P17948 27-756); assay: ELISA, 1 µg/ml antigen coated, 1 µg/ml antibody
T3 construct: also called Sino Biological 10136-H08H
Experimental: (§1) Briefly, 1 μg/ml human VEGFR1 (Sino Biological, cat #10136-H08H), VEGFR2 (Acrobiosystem, cat #KDR-H5227) and VEGFR3 (Sino Biological, cat #10806-H08H) protein were coated overnight at 4° C. 1 μg/ml humanized antibodies (48-H3L1 and 54-H2L1, produced in CHO cells or Ramucirumab from Eli Lilly Germany, lot #20150819) were added for binding to coated antigen. Secondary antibody HRP conjugated goat anti-human Fc antibody were added for detection of binding signal.

human VEGFR3 protein = target: T4, human VEGFR3 protein (human, UniProt P35916 25-776); assay: ELISA, 1 µg/ml antigen coated, 1 µg/ml antibody
T4 construct: also called Sino Biological 10806-H08H
T4 sequence (looked up): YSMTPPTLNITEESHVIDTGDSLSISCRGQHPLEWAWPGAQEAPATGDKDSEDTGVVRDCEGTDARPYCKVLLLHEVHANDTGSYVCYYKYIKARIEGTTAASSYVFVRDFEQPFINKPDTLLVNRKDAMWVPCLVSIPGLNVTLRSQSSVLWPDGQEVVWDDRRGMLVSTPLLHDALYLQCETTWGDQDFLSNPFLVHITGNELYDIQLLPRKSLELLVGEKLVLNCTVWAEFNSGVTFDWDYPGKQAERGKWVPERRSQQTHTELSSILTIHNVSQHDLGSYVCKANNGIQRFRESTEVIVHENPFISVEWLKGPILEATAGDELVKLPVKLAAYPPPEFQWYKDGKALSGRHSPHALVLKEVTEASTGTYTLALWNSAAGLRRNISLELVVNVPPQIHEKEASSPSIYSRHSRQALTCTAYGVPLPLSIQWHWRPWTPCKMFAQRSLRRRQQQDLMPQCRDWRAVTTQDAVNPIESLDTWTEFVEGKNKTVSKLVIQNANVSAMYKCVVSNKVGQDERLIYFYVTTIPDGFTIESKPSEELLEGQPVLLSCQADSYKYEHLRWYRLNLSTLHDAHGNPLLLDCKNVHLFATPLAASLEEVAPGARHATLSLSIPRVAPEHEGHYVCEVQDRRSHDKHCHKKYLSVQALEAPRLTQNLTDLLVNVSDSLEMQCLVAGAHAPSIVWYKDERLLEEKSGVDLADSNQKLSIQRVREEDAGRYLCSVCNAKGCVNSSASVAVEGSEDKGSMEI
Experimental: as §1

[4] = target: T1, Recombinant Human VEGFR2/KDR Protein, …; assay: SPR (Biacore), antibody captured by anti-Fc, antigen 2.5-80 nM
Summary of the method: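 Human or mouse Fc-captured antibody (200–300 RU) on anti-Fc CM5 surface; antigen injected at 2.5–80 nM in HBS-EP pH 7.4 with 180 s association. Reference-cell-subtracted sensorgrams; regeneration with glycine pH 1.5.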

T3 sequence (P17948 27-756 limits assumed): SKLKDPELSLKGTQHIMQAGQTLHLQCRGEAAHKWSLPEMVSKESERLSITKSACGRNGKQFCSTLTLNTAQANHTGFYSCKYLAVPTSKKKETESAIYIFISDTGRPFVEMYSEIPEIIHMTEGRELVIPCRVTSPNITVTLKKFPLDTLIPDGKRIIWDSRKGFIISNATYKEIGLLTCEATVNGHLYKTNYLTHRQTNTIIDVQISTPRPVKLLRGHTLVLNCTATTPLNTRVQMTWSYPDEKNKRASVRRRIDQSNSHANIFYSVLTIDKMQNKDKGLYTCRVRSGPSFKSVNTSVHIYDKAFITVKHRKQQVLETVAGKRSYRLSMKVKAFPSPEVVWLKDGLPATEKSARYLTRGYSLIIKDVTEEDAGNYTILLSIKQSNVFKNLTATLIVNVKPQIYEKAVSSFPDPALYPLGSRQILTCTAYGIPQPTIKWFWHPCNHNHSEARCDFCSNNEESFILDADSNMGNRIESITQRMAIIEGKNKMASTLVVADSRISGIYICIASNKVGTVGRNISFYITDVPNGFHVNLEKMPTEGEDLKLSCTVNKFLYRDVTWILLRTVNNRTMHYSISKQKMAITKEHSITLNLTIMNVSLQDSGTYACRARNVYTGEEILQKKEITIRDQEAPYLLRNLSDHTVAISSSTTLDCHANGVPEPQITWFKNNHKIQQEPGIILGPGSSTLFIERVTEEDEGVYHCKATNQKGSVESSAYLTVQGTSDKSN

B1: 54-H2L1 (humanized Mab54) (antibody, human IgG1, V domains shown)
VH: EVQLVESGGGLVKPGGSLRLSCAASGFTFSMYGMSWVRQAPGKRLEWVASISIGGSYTYYADSVKGRFTISRDNAKNTLYLQMNSLRAEDTAVYYCARELDGNYDYWGQGTTLTVSS
VL: DIVITQDELSLPVTFGESVSISCRSSKSLLYKDGKTYLNWFLQRPGQSPQLLIYLMSTRASGVSDRFSGSGSGTDFTLKISRVEAEDVGIYYCQQLVEYPFTFGSGTKLEIK
notes: also called 54-H2L1 (CHO); humanized 54 variant H2L1
- EC50 [1]: 0.00755 µg/mL
- IC50 [2]: 0.654 µg/mL
- EC50 (read off the curve) [3]: ~0.3 µg/mL
- binding result (human VEGFR1 protein): no binding (tested: 1 µg/ml)
- binding result (human VEGFR3 protein): no binding (tested: 1 µg/ml)
- Kd [4]: 2.51 nM
- koff [4]: 0.000138 s⁻¹
- kon [4]: 54800 M⁻¹ s⁻¹

— patent US20240209099A1 (SUZHOU TRANSCENTA THERAPEUTICS, published 2024)
